Patent publication US9512236B2, “Amino acid sequences directed against GPCRS and polypeptides comprising the same for the treatment of GPCR-related diseases and disorders” (Ablynx N.V., priority 2006, dated 2016)
Each block holds one molecule with its values, some of them ahead of it.

What was measured:
[1] = biological target: T1, hCXCR4/Gαqi5 (Homo sapiens, UniProt P61073); experiment: CXCL12-induced inositol phosphate accumulation in HEK293T cells co-transfected with CXCR4 and Gαqi5; assay type: cell-based; conditions: 30 nM CXCL12
T1 construct: expressed in transfected cells; host or cells: HEK293T
Text: In an effort to functionally characterize the Nanobodies 238D2 and 238D4, the inventors measured their ability to activate G-protein signaling or to inhibit the CXCL12-induced G-protein signaling in HEK293T cells transiently co-transfected with cDNAs encoding CXCR4 and Gαqi5. This assay is based upon the use of the chimeric Gαqi5-protein that contains of a Gαq backbone with the 5 C-terminal amino acids replaced by those from Gαi. The chimeric G-protein is activated by CXCR4 like a Gαi subunit but transduces signals like Gαq proteins (Coward, P., et al., Chimeric G Proteins Allow a High-Throughput Signaling Assay of […] Receptors, Analytical Biochemistry (1999) 270: 242-248). Thus, the activation of Gαqi5 can be quantified by the measurement of accumulated inositol phosphates.
Methods: On day 1, HEK293T cells were plated out at a density of 2 million cells/dish. On day 2, these cells were transfected with 2.5 μg CXCR4 DNA and 2.5 μg Gαqi5, using the PEI method. Cells were plated out the next day in poly-L-lysine coated 24 well plates (500 μl/well) and labeled after 4-6 hours with 2 μCi/ml 3H-inositol in inositol-free medium. […] After this final incubation, the reaction was stopped by aspiration of stimulation medium and addition of 10 mM formic acid (FIG. 4).

[2] = biological target: CXCR7 point mutants (Homo sapiens, UniProt P25106, W19A); experiment: Binding to a set of 10 point mutants of CXCR7; conditions: W19A point mutant
Method: (§1) In a third approach, Nanobodies were tested for their binding to a set of 10 point mutants of CXCR7 (S9A, F14Y, 117L, S18N, W19A, S23G, D25A, V32A, M33Q, N36T), which yielded information on the individual NANOBODY® (VHH) epitopes.

[3] = biological target: CXCR7 (Homo sapiens, UniProt P25106); experiment: Competition with Alexa647-labelled 14G03 in FACS analysis; assay type: binding; conditions: Alexa647-labelled 14G03, FACS
Text: Nanobodies 08A05, 08A10, 07C03, 01C10 and 14G03, Mab 8F11 (Biolegend), Mab 11G8 (R&D) and Mab 9C4 (MBL) were further tested for competition with Alexa647-labelled 14G03 in FACS analysis.

[4] = biological target: CXCR7 point mutants (Homo sapiens, UniProt P25106, M33Q); experiment: Binding to a set of 10 point mutants of CXCR7; conditions: M33Q point mutant
Method: as §1

[5] = biological target: CB1R; experiment: Binding of clones measured on Biacore (Table B-2); conditions: read-out: Binding of clones against CB1R
Method: (§2) Binding of 4 clones directed against CB1R and of 4 clones against PTHR was measured on Biacore.

[6] = biological target: T2, PTHR (Homo sapiens, UniProt Q03431); experiment: Binding of clones measured on Biacore (Table B-3)
T2 sequence (Q03431 27-593): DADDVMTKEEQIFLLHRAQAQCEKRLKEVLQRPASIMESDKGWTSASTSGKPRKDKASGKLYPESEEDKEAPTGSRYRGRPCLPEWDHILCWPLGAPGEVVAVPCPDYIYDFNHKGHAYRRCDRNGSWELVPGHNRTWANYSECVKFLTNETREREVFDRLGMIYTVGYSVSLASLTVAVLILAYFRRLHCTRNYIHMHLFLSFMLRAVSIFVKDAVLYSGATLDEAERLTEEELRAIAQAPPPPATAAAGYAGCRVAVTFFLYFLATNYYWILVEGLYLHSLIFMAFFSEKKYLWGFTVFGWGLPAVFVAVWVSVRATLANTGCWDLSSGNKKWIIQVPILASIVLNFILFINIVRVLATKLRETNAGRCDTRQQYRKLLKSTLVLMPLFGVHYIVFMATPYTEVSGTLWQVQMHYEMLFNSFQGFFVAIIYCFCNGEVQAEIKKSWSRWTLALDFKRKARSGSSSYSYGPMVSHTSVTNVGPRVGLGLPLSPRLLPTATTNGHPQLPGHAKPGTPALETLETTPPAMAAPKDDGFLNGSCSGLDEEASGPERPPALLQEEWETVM
Method: as §2

[7] = biological target: T3, CXCR4 (Homo sapiens, UniProt P61073); experiment: [125I]-CXCL12 competition binding on membranes from HEK293T cells transiently expressing CXCR4 (Table I)
T3 construct: expressed in transfected cells; host or cells: HEK293T (membranes)
Text: Another example of a therapeutic relevant GPCR is CXCR4, which was previously identified as such in Table C and Table D of US20100062004. This representative GPCR has now been further investigated by the present inventors. Different pools of highly similar clones able to inhibit specific [^125I]-CXCL12 binding were identified in a CXCR4 competition binding assay. Nanobodies representing these different pools were purified and further pharmacologically analyzed as detailed in the Example section of WO09/138519. In particular two representative monovalent Nanobodies 238D2 and 238D4 and different mono- and heterobivalent constructs thereof have been analyzed in depth:
Additionally, the inventors engineered a series of mono-specific bivalent and biparatopic CXCR4 constructs. […] Overall, short peptide linkers were used favoring binding to CXCR4 monomers.
In membrane binding experiments mAb 12G5, which is a known neutralizing CXCR4 antibody, seems only to displace 50% of radiolabeled 125I-CXCL12 (CXCR4 ligand).

T3 sequence (P61073 whole entry): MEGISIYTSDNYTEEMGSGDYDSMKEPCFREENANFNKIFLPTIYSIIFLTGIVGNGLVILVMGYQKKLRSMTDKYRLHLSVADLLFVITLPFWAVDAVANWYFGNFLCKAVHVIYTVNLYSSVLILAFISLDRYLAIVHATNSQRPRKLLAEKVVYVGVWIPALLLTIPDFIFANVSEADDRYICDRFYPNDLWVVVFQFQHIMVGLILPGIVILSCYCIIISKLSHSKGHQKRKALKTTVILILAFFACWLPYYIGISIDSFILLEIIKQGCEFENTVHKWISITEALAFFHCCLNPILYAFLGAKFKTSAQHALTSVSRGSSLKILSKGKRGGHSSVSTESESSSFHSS
Sequence of CXCR7 point mutants (Homo sapiens, UniProt P25106, W19A) (P25106 whole entry W19A): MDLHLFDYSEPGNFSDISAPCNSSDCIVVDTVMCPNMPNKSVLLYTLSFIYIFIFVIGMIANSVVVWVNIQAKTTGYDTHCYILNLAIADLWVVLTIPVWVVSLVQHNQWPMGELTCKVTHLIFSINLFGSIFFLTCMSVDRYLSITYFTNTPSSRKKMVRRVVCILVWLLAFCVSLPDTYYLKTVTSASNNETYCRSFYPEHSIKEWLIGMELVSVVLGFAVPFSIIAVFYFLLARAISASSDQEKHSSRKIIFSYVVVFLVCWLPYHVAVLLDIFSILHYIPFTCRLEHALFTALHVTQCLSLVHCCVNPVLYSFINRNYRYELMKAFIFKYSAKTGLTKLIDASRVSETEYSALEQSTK
Sequence of CXCR7 point mutants (Homo sapiens, UniProt P25106, M33Q) (P25106 whole entry M33Q): as the sequence (P25106 whole entry W19A) above, with A19W, M33Q counted along it
Sequence of CXCR7 (P25106 whole entry): as the sequence (P25106 whole entry W19A) above, with A19W counted along it
T1 sequence (P61073 whole entry): as the sequence (P61073 whole entry) above

Molecule: c1cc(CN2CCCNCCNCCCNCC2)ccc1CN1CCCNCCNCCCNCC1 [AMD3100, plerixafor, reference compound]
concentration needed to inhibit CXCR4 function [1]: 1 µM

B1: 01C10: Nanobody against human CXCR7, Group 1 (protein)
VHH: EVQLVESGGGLVQTGASLRLSCAASGRTFSNYAMGWFRQAPGKERERVAAITPRAFTTYYADSVKGRFTISRDNAKNTAYLQMVSLKPEDTAVYYCAAQLVGSGSNLGRQESYAYWGQGTQVTVSS
modifications: Nanobody, Nanobody constructs or fragments thereof
effect of W19A mutation on binding [2]: affected
competition with 14G03 binding to CXCR7 [3]: does not

B2: 08A05: Nanobody against human CXCR7, Group 2 (protein)
VHH: EVQLVESGGGLVQAGDSLRLSCAASGLTFSNYDMGWFRQAPGKEREFVGASWWSGGAPYYSDSVKGRFTISRDNAKNTVYLQANSLRPEDTAVYYCAAKRLRSFASGGSYDYWGQGTQVTVSS
modifications: Nanobody, Nanobody constructs or fragments thereof
effect of W19A mutation on binding [2]: did not affect
epitope includes residue M33 [4]: included residue M33
competition with 14G03 binding to CXCR7 [3]: compete

B3: vHH6B7 (protein)
VHH: EVQLVESGGGLVQAGGSLRLSCAASGRTLRNYDMGWFRQAPGKEREFVATIRWSTSETYYADSVKGRFTISSDNAKNTVDLQMNSLTPGDTGVYYCAARSVYSYDYNYWGQGTQVTVSS
Kd [5]: 12 nM

B4: vHH5G11 (protein)
VHH: EVQLVKSGGGLVQAGGSLRLSCAASGRTLSNYDMGWFRQAPGKEREFVATIRWSTGETYYTDSVKGRFTISKDNTKNTVDLQMNSLTPEDTAVYYCASRSVYSYEYNYWGQGTQVTVSS
Kd [5]: 12 nM

B7: 08A10: Nanobody against human CXCR7, Group 2 (protein)
VHH: EVQLVESGGGLVQAGGSLRLSCAASGSIFSIAAMGWYRQATGKQRELVATITDGGTTTYADSVKGRVTISRDRSANTVYLAMNNLKPDDTAVYYCYAYLRYTSRVPGDNYWGQGTQVTVSS
modifications: Nanobody, Nanobody constructs or fragments thereof
effect of W19A mutation on binding [2]: did not affect
epitope includes residue M33 [4]: included residue M33
competition with 14G03 binding to CXCR7 [3]: compete

B9: L13 (protein)
chain: EVQLMESGGGLVQAGGSLRLSCAASGRTFNNYAMGWFRRAPGKEREFVAAITRSGVRSGVSAIYGDSVKDRFTISRDNAKNTLYLQMNSLKPEDTAVYTCAASAIGSGALRRFEYDYSGQGTQVTVSSGGGGSGGGGSGGGGSGGGGSEVQLMESGGGLVQAGGSLRLSCAASGRTFNNYAMGWFRRAPGKEREFVAAITRSGVRSGVSAIYGDSVKDRFTISRDNAKNTLYLQMNSLKPEDTAVYTCAASAIGSGALRRFEYDYSGQGTQVTVSS
Displacem. (%) (maximal displacement of [125I]-CXCL12) ([7]; membranes from HEK293T cells transiently expressing CXCR4, means ± S.E.M.): 96 ± 5%

B11: 238D2-20GS-238D4: biparatopic CXCR4 Nanobody, 238D2 linked to 238D4 via 20 amino acid GGGGS-repeat linker (protein)
chain: EVQLVESGGGLVQTGGSLRLSCAASGFTFSSYAMSWVRQAPGKGLEWVSGIKSSGDSTRYAGSVKGRFTISRDNAKNMLYLQMYSLKPEDTAVYYCAKSRVSRTGLYTYDNRGQGTQVTVSSGGGGSGGGGSGGGGSGGGGSEVQLMESGGGLVQAGGSLRLSCAASGRTFNNYAMGWFRRAPGKEREFVAAITRSGVRSGVSAIYGDSVKDRFTISRDNAKNTLYLQMNSLKPEDTAVYTCAASAIGSGALRRFEYDYSGQGTQVTVSS
Ki ([7]; [125I]-CXCL12 displacement, membranes from HEK293T cells transiently expressing CXCR4, read-out: Ki (nM) (receptor affinity)): 0.36 nM
Rel. potency (potency relative to those of monovalent 238D2) ([7]; footnote a: relative to monovalent 238D2): 27
Rel. potency (potency relative to those of monovalent 238D4) ([7]; footnote b: relative to monovalent 238D4): 17
increase in affinity to CXCR4 over monovalent counterpart 238D2 ([7]; relative to monovalent 238D2): 27 fold
increase in affinity to CXCR4 over monovalent counterpart 238D4 ([7]; relative to monovalent 238D4): 17 fold
inhibitory potency on CXCL12-induced inositol phosphate accumulation ([1]; compared to monovalent counterparts and 12G5, FIG. 4): significantly increased inhibitory potency

B13: 14G03: Nanobody against human CXCR7, Group 2 (protein)
VHH: EVQLVESGGGLVQPGGSLRISCAASGSIYLINYMGWYRQAPGKQRELVATLTSGGSTNYAGSVKGRFAISRDNAKNTVYLQMNSLKPEDTAVYYCNIGGTLYDRRRFESWGQGTQVTVSS
modifications: Nanobody, Nanobody constructs or fragments thereof
effect of W19A mutation on binding [2]: did not affect
epitope includes residue M33 [4]: included residue M33

Other lines, results leading:

Kd ([6]; PTHR + CaCl2): 9 nM
Kd ([6]; PTHR − CaCl2): 17 nM
B5: vHH22A3 (protein)
VHH: EVQLVESGGGLVQAGGSLRLSCAASGNIFANNIMGWYRQPPGKEREFVAHVSHDGDSMYAVSVKGRFAISRKDATNLYLQMNSLKPEDTAIYFCRLLNIPTQGRMEGFWGQGTQVTVSS

Kd ([6]; PTHR + CaCl2): 70 nM
Kd ([6]; PTHR Fos12): 360 nM
B6: vHH26F2 (protein)
VHH: EVQLVESGGGLVQAGGSLRLSCVASGFSFDDYAIGWFRQAPGQDREPLACITSGGTRNYNPSVMARFRIDRDNSVKTVYLQINTLKPEDTAVYYCSTELDRQGGSAHECREYDTWGQGTQVTVSS

Kd [5]: 36 nM
B8: vHH6H4 (protein)
VHH: EVQLVESGGGLVQAGGSLRLACAASGSIFSFNAMGWYRQAPGKQRELLAVITRDGITKYADSVKGRFTISRDNAKNTMYLQMNSLKPEDTAVYYCHTGLPTGRGSHSDYWGQGTQVTVSS

Kd ([6]; PTHR − CaCl2): 17 nM
B10: vHH26A6 (protein)
VHH: EVQLVESGGGLVQAGGSLRLSCAASRSRSSFDDMGWYRQAPGKQREFVGGITLGGSTIYADSVKGRFTISMDSARNTGYLQMNSLKPEDTAVYYCNAALDGYSGSSWGQGTQVTVSS

Kd ([6]; PTHR − CaCl2): 22 nM
B12: vHH23A3 (protein)
VHH: EVQLVESGGGLVQAGGSLRLSCAASGLTFSNYAMGWFRQAPGKEREWVASINWSGGSTYYEDSVEGRFTISRDNAKNTVNLQMNSLKPEDTAVYYCAAKRGHYSREYDYWGQGTQVTVSS
